Positions count from the first letter of the chain named. Each block holds one binder with its values, some of them ahead of it.
Legend:
[1] = target: T1, Recombinant extracellular domain of human FOLR1 (Novoprotein, Cat#: C784) (human, UniProt P15328 25-233, limits assumed); experiment: ELISA on immobilized FOLR1 extracellular domain; O.D. 450 nm
T1 construct: Bought reagent; also called recombinant FOLR1; immobilized FOLR1 extracellular domain

[2] = target: T1, Recombinant extracellular domain of …; experiment: SPR (Biacore 8k), mAb captured on protein A chip, recombinant FOLR1 as analyte, 1:1 model
Description: The interaction of the chimeric anti-FOLR1 mAbs and FOLR1 was measured by Surface Plasmon Resonance (SPR) (Biacore 8k, GE Healthcare). Briefly, an anti-FOLR1 mAb was immobilized to a protein A sensor chip (GE Healthcare, Cat#: 29-1275-56) in HBS-P buffer (0.01 M HEPES pH 7.4, 0.15 M NaCl, 0.05% v/v Surfactant P20) with an injection flow rate at […]. The recombinant FOLR1 (Novoprotein, Cat#: C784) at variant concentrations was loaded with the flow rate of 30 μL/min in HBS-P buffer. Following antigen loading, the surface was regenerated with 10 mM glycine-HCl (pH 1.5). Sensor grams were fit with a 1:1 binding model using Biacore 8k evaluation software (GE Healthcare).

[3] = target: T1, Recombinant extracellular domain of …; experiment: ELISA on immobilized FOLR1 extracellular domain; O.D. 450 nm; remark: listed apart in the source
[4] = target: T1, Recombinant extracellular domain of …; experiment: ELISA on plate-coated recombinant human FOLR1 extracellular domain; anti-human IgG-HRP; O.D. 450 nm
Description: The Purified chimeric mAbs were tested in an ELISA assay for their ability to bind to immobilized human FOLR1. Recombinant extracellular domain of human FOLR1 (Novoprotein, Cat#: C784) in carbonate coating buffer was coated on a 96-well plate at room temperature for 1 hour. The plate is blocked by 5% BSA in TBST for 1 hour at room temperature. In each well of an individual plate, mAbs at various concentrations were incubated for 1 hour at room temperature. The plate was washed and the binding to FOLR1 was detected by anti-human IgG conjugated to horseradish peroxidase (hIgG-HRP) (ThermoFisher Scientific, Cat#: H10007) with incubation for 1 hour at room temperature. Then after washing, the ELISA was developed using One-step Detection Solution (ThermoFisher Scientific, Cat#: 34028) and measured as the absorbance at 450 nm.

[5] = target: T2, FOLR1 on SK-OV-3 cells (ATCC HTB-77) (Homo sapiens (Human), UniProt P15328 25-234); experiment: FACS on SK-OV-3 cells; Alexa Fluor 488 F(ab')2 goat anti-human IgG Fc; MFI
T2 construct: Endogenous FOLR1 of the cell line; also called cells that are known to express FOLR1
Description: To assess the binding of the chimeric anti-FOLR1 mAbs to cells that are known to express FOLR1, SK-OV-3 (ATCC® HTB-77™) cells were plated at 80,000 cells per well on a 96-well non-binding U-bottom plate (Greiner Bio-One, Cat#: 650901). In some experiments, 90,000 cells per well were used. The cells were incubated in 50 μL FACS buffer (HBSS with 0.1% BSA and 0.05% sodium azide) containing mAbs at different concentrations on ice for 15 minutes. After wash, cells were incubated in 50 μL FACS buffer containing 3.5 μg/mL F(ab′)2-Goat anti-Human IgG Fc conjugated to Alexa Fluor® 488 (Invitrogen, Cat#: H10120) on ice for 15 minutes in dark and washed again. Cells were analyzed using an Attune NxT flow cytometer. MFI, mean fluorescence intensity.

[6] = target: T2, FOLR1 on SK-OV-3 cells (ATCC HTB-77); experiment: FACS on SK-OV-3 cells; MFI
[7] = target: T2, FOLR1 on SK-OV-3 cells (ATCC HTB-77); experiment: FACS on SK-OV-3 cells; MFI; remark: listed apart in the source
[8] = target: T1, Recombinant extracellular domain of …; experiment: ELISA on immobilized FOLR1 extracellular domain; O.D. 450 nm; remark: listed apart in the source
[9] = target: T2, FOLR1 on SK-OV-3 cells (ATCC HTB-77); experiment: FACS on SK-OV-3 cells; MFI; remark: listed apart in the source
[10] = target: T1, Recombinant extracellular domain of …; experiment: ELISA on immobilized FOLR1 extracellular domain; O.D. 450 nm; remark: listed apart in the source
[11] = target: T2, FOLR1 on SK-OV-3 cells (ATCC HTB-77); experiment: FACS on SK-OV-3 cells; MFI; remark: listed apart in the source
[12] = target: T1, Recombinant extracellular domain of …; experiment: ELISA on immobilized FOLR1 extracellular domain; O.D. 450 nm; remark: listed apart in the source
[13] = target: T2, FOLR1 on SK-OV-3 cells (ATCC HTB-77); experiment: FACS on SK-OV-3 cells; MFI; remark: listed apart in the source

T2 sequence (P15328 25-234 limits assumed): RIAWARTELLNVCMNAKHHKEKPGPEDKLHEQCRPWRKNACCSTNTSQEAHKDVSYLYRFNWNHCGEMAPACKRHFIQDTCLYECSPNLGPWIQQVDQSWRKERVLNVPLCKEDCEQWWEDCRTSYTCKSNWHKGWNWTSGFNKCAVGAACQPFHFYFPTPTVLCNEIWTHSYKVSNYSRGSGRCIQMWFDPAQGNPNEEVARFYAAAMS
T1 sequence (P15328 25-233 limits assumed): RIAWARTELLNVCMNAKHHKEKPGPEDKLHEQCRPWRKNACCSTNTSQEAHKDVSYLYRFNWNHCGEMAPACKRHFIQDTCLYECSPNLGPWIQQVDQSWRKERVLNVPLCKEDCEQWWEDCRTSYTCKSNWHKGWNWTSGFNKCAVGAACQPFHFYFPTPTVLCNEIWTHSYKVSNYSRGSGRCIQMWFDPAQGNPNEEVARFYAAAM

B2: F17-H1L1 (antibody, V domains shown)
VH: EVQLVETGGGLIQPGGSLRLSCAASGFTFSDFGMHWIRQAPGKGLEWVAYMSYTPGTFHYADTVKDRFTISRDNSKNTLYLQMNSLRAEDTAVYYCARVHVGTVDYWGQGTLVTVSS
VL: EVVLTQSPATLSLSPGERATLSCRASQNINNNLHWFQQKPGQAPRLLIKYASQSISGIPARFSGSGSGTDFTLTISSLEPEDFAVYFCQQSNSWPALTFGQGTKVEIK
notes: also called humanized F17 mAb H1L1
EC50 (read off the curve) [3]: 0.1 to 0.2 nM

B4: F5-H1L2 (antibody, V domains shown)
VH: EVQLLESGGGLVQPGGSLRLSCAVSGFTFSNYGMSWVRQAPGKGLEWVATISSGGSYTYYPDSVKGRFTISRDNSKNTLYLQMNSLRAEDTAVYYCSTQGSSGYVGYWGQGTLVTVSS
VL: DIQMTQSPSSVSASVGDRVTITCKASQDITNFIGWYQHKPGKAPKLLISYTSILESGVPSRFSGSGSGTDYTLTISSLQPEDFATYYCLQYYNLWTFGGGTKVEIK
notes: also called humanized F5 mAb H1L2
EC50 (read off the curve) [7]: ~0.9 nM | EC50 (read off the curve) [8]: 0.2 to 0.3 nM

B6: F10-H1L1 (antibody, V domains shown)
VH: EVQLVQSGAEVKKPGSSVKVSCKASGYAFSSSWMNWVRQAPGQGLEWIGRIYPGDGYTHYNGMFKGRASLTADKSTSTGYMELSSLRSEDTAVFFCTRHGDFPYWYFDVWGRGTLVTVSP
VL: DIQMTQSPSTLSASVGDRVTITCRASENIDSYLAWYQQKPGRAPKLLVYAATNLAVGVPSRFSGSGSGTEYTLTISSLQSDDFATYYCQHHYSTPPTFGQGTKLEIK
notes: also called humanized F10 mAb H1L1
EC50 (read off the curve) [9]: ~3 nM | EC50 (read off the curve) [10]: 0.1 to 0.2 nM

Second part, the binder after the results:

EC50 (read off the curve) [1]: 0.2 to 0.3 nM | Kd [2]: 0.265 nM | EC50 (read off the curve) [3]: 0.2 to 0.3 nM | EC50 (read off the curve) [4]: 0.1 to 0.2 nM | EC50 (read off the curve) [5]: ~0.8 nM
B1: chimeric anti-FOLR1 mAb F17 (antibody, V domains shown)
VH: DVQLVESGGGLVQPGGSRKLSCAASGFTFSDFGMHWIRQAPERGLEWVAYMSYTPGTFHYADTVKDRFFISRDNAKNTLFLQMTSLRSDDTAMYYCARVHVGTVDYWGQGTSVTVSS
VL: DVVLTQSPATLSVTPGDSVSLSCRASQNINNNLHWFQQKSHESPRLLIKYASQSISGIPSRFSGSGSGTDFTLSINNVETEDFGIYFCQQSNSWPALTFGTGTKVELK
notes: also called Chimeric mAb F17

EC50 (read off the curve) [1]: ~0.2 nM | EC50 (read off the curve) [6]: ~0.9 nM
B3: F17-H1L2 (antibody, V domains shown)
VH: B2 VH
VL: B2 VL with P80T
notes: also called humanized F17 mAb H1L2

EC50 (read off the curve) [7]: ~0.9 nM | EC50 (read off the curve) [8]: 0.2 to 0.3 nM
B5: F5-H2L2 (antibody, V domains shown)
VH: B4 VH with L5V
VL: B4 VL
notes: also called humanized F5 mAb H2L2

EC50 (read off the curve) [11]: ~3 nM
B7: F10-H2L1 (antibody, V domains shown)
VH: B6 VH with P120S
VL: B6 VL
notes: also called humanized F10 mAb H2L1

EC50 (read off the curve) [12]: 0.2 to 0.3 nM | EC50 (read off the curve) [13]: ~1 nM
B8: F20-H3L3 (antibody, V domains shown)
VH: QVQLVQSGAEVKKPGSSVKVSCKASGYTFASYYLYWVRQAPGQGLEWIGEINPRSGGTNFNEKFKSKATVTVDKSTNTAYMELSSLRSEDTAVYYCSRSGRLRGFYTMDYWGQGTLVTVSS
VL: DIQMTQSPSTLSASVGDRVTITCKAGENVGSYVSWYQQKPGKAPKLLIYGASNRYTGVPARFSGSGSATEFTLTISSLQPDDFATYYCGQTYRFLTFGQGTKVEVK
notes: also called humanized F20 mAb H3L3

Reference: patent US20210002363A1 (PHANES THERAPEUTICS, published 2021)
